Assay results reported in patent US20080166749A1, “Fluorescent Protein Sensors of Post-Translational Modifications” (INVITROGEN CORPORATION, priority 1998, published 2008).
Where no end group is shown, it is not given here.

Experiments:
Type in all cases: biochemical
PKA = PKA (Mus musculus, UniProt P05132); assay: GFP mutant K8 quenching assay with protein kinase A inhibitors; details: 1 mM versus 0.1 mM ATP
Method: The protein kinase A inhibitors PKI (protein kinase A heat-stable inhibitor, isoform alpha (Calbiochem #539488) and H-89 (N-[2-((p-bromocinnamyl)amino)ethyl]-5-isoquinoline sulfonamide, HCl) (Calbiochem #371963) were tested in the preferred assay condition to determine if they could be detected using the GFP mutant K8 quenching assay. Both compounds were tested individually (between 0.1 and 1,000 nM) and pre-incubated with PKA in the absence of mutant K8 for 10 minutes at 4° C. Then, GFP mutant K8 was added to a final concentration of 4 μM and the mixtures were incubated for thirty minutes at 30° C. The kinase reactions were terminated by the addition of the preferred acetate quenching conditions (100 mM acetate, 100 mM NaCl, pH 5.0, 25 mM beta-glycerol phosphate). The fluorescence of these samples was measured 14 to 16 hours later. The results of these studies establish that the GFP mutant K8 quenching assay can be used to detect kinase inhibitors and further validates the methodology for drug screening.
The protein kinase A inhibitor H-89 was tested in the GFP mutant K8 kinase assay at two different ATP concentrations (0.1 mM and 1 mM). […] Because the GFP kinase assay can be performed at both high and low ATP concentrations, this method can be used to identify, measure, and detect ATP antagonists. […]

PKC alpha = PKC alpha (Homo sapiens, UniProt P17252); assay: Rate of phosphorylation of GFP PKC substrates, ^32P incorporation; details: 5 micromolar GFP mutant, 0.2 μg PKC isoform, 30 minutes at 30° C.
Method: (§1) The rates of phosphorylation of GFP having PKC motifs were determined by measuring ^32P incorporation in the presence of different PKC isoforms (Table XIII). These examples include one example where a membrane association motif is part of the GFP mutant.
(§2) These experiments were performed by incubating the indicated GFP mutant (5 micromolar) with the indicated PKC isoform (0.2 μg) for 30 minutes at 30° C. in 25 mM TRIS pH 7.5, 1 mM DTT, 10 mM MgCl2 0.1 mM ATP 20 μg/ml phosphatidylserine, 10 μM OAG, 200 μM CaCl2 (for PKCα) and 1 mM EGTA (for PKCs ε and ζ). […] The relative specificities identified for the GFP substrates in this experiment broadly matched those identified by Nishikawa et al (1997) who used non-GFP peptides to selectively measure PCK isoform activity. […] Membrane association motif poly-Lys (hepta-Lys) was added to the C-terminus of GFP mutant K8 with PKC alpha phosphorylation motif at the N-terminus.

PKC ζ = molecular target: T1, PKC ζ (Homo sapiens, UniProt Q05513); assay: as above; details: 5 micromolar GFP mutant, 0.2 μg PKC isoform, 30 minutes at 30° C.
T1 sequence (Q05513 1-592): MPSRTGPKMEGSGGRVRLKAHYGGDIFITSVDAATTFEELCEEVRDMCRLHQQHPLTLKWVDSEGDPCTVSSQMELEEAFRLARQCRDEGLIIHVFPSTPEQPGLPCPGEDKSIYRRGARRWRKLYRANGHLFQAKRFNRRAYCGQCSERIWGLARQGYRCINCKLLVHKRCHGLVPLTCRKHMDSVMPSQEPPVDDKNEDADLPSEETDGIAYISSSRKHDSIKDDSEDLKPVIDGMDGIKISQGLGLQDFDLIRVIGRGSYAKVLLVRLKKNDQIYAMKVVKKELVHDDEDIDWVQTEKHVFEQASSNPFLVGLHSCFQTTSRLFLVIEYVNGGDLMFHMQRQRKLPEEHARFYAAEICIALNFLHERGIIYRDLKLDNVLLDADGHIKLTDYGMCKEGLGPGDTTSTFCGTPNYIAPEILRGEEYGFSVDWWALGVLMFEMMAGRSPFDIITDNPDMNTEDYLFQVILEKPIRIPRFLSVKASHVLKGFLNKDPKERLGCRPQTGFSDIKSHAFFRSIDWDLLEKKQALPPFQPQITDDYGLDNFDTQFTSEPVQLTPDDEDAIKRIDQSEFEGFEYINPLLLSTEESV
Method: as §1, §2

PKC ε = molecular target: T2, PKC ε (Homo sapiens, UniProt Q02156); assay: as above; details: 5 micromolar GFP mutant, 0.2 μg PKC isoform, 30 minutes at 30° C.
T2 sequence (Q02156 1-737): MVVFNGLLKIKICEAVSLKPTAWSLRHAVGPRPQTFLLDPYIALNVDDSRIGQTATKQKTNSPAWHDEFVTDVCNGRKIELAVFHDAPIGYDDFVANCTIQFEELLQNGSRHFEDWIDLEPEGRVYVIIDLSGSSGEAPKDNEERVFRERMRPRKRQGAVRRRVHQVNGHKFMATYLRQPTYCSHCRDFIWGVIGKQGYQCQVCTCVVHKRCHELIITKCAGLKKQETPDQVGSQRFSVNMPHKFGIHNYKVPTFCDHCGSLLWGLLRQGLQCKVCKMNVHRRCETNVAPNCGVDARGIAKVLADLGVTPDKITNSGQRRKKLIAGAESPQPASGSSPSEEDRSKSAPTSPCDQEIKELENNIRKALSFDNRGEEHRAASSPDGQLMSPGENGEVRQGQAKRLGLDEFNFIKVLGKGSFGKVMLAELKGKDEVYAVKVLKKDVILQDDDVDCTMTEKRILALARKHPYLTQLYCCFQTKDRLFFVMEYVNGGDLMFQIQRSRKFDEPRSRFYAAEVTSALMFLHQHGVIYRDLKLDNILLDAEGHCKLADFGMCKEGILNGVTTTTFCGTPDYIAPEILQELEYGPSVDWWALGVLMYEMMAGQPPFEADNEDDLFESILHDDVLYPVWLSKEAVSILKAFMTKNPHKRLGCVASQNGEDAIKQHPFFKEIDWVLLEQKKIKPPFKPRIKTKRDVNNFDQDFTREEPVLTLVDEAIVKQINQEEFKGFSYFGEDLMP
Method: as §1, §2

Molecule | inhibition of kinase activity at the higher ATP concentration (PKA) | Kinase and Activity (CPM), PKC alpha (PKC alpha) | Kinase and Activity (CPM), PKC ζ (PKC ζ) | Kinase and Activity (CPM), PKC ε (PKC ε)
Cl.O=S(=O)(NCCNCC=Cc1ccc(Br)cc1)c1cccc2cnccc12 [H-89, N-[2-((p-bromocinnamyl)amino)ethyl]-5-isoquinoline sulfonamide, HCl] | much less efficient at inhibiting kinase activity | – | – | –
Pkc 7: GFP mutant K8 with PKC ζ motif Arg Arg Phe Lys Arg GIn Gly Ser Phe Phe (RRFKRQGSFF; not fully specified; printed as Arg Arg Phe Lys Arg GIn Gly Ser Phe Phe) | – | 4,745 CPM | 8,421 CPM | 12,688 CPM
Pkc 8: GFP mutant K8 with PKC μ motif Ala Ala Leu Val Arg GIn Met Ser Val Ala (AALVRQMSVA; not fully specified; printed as Ala Ala Leu Val Arg GIn Met Ser Val Ala) | – | 5.230 CPM | 14,606 CPM | 20,259 CPM
